Consider 17 sequences from the DeepSol protein solubility set.

The nature of this data set: soluble on expression in E. coli; label from the status in PepcDB or PDB records.
With “MAPVLGLLENEAKVKSIIRNNNLLEKKFSSFQRQCRDLSRNHALLDSCCSQVKHSATAAEEMSVSDKDVKNHQKKLHSFLAQSTDQVNSTIDKMDFFCSKGNHSLPMEMSVLSITLPYEACIEKSAKKHETMVFSIDEVSSAVQHLENEKVDVEKRQSSTGKLIFQTEKEIMKLKEEIQVNTNLESNIIQLSLEKLSSVKDSSTSENVYKAKLEEEINEARQIYEDALKQDVISQESAMMTQQLESLNELCSDLSDLNKINLTSIEKFPDCNEVCELSDELQTLEKSEAENSESIINLEASLEDIKYQNKKVRKSFDQINQLENAYIVKKEVLTRKKSAIEDVKRQIAESKITLNKLKVTVRAVERSDTPENVESKKEEAFRRLVASSTELPGPESFQRDNVRNVEKSLRFKKWNQRTTSQSSFTSDSTRSIGPIGVHYPGIKLINKDAATPTEVIRKITSELNESATSEDSTFDDDTGTTQDESGLNAFFNSPVSKEQTSMRPQFSMIAHMEKYDTMQAKKNMDKLPDNVRRESEMEHISHNYGRPSEVNRPASVSSKRHDPAASISATSEESILSGTTQDESMLNDFFNPTGTDEKLNDVEFSMTAHVAEFDNRQKAKRAAEQIKKSSSKISGKKEESVADDKSSGNSYVAESEAGFSQGSEENESMDDEDLVAPDDGGLDQTIWDGDD”, the “soluble on expression in E. coli” value is recorded as “not soluble”. As for “MGCAVSQESAIATVSSSSNTATTSTSSSNTSQKWATSRTSRPVTNVTQVSAIHTTSMDSGSSTVQLPSPRGSLTTAVSTSSSGAQRQMSANSERSLHTRPLSETAVILQSQAVKMSTGAGDSAVYEAVERGSLYSLDYRVYIKGPQGIVSPWHDIPLFANKDKRVYNMIVEIPRWTNAKMEMATKEPFSPIKQDEKKGVARFVHNIFPHKGYIWNYGALPQTWEDPNHVVPDTGAKGDNDPIDVIEVGSKVAGRGAVLQVKVLGTLALIDEGETDWKLVAIDVNDENADKLNDIDDVEKVYPGLLAASVEWFRNYKIPAGKPANEFAFNGEFKNREYAEKVIDETNEYWKTLIKEANPSLNTVSRVPEAVHQGTDEAAATAIGATPEHGANAPLPGDVDKWHFVQG”, the “soluble on expression in E. coli” value was “not soluble”. Turning to “MGKISIVGLGPGDYSLISQGVLESLINSPKVFFRTEKHPIIDKLKETIQYTSLDYFYEKEENFDNVYLKISEFIIEESAKGDLVYAVPGHPRVAEKTVSIIERLANEKHIAVEILPSMSFVDAMFNYLAIDPSEGFKLVDAFEIENSYIDLDTSMIITQVYDKFIASNVKLKLMEHYDYNQEVCIVNGAGVKDLESKKFIKLCELDRNENFFDYLTSLYIPKSSKKMYNTVHDLEIIVNTLRSPSGCEWDKKQTHQSLKNSVIEEAYELCNAIDNNDIDEMVEELGDVLLQVIFHCQIGNEEGYFDLKEVVNGICKKLIHRHPHIFSGAKLDMSKFEKTWEELKKEEKGESTITDGLRRIPKHLPALMKASKVQHKAALVGFDWDNVEDVFKKIEEEYQELLDEHRVGNIKYIKEELGDLLFSIVNLARFLDIDSGEALNCTTEKFINRFDFIEKSAMNLNKKLEDMTLEEMDEFWNQAKKQ”, the “soluble on expression in E. coli” value was “not soluble”. In the case of “MSKEKYSFEDLIKVMEELRKKCPWDREQTHESLKKYLIEEAYEVLDAIDSKDDEKLKEELGDLLLQVVFHSQIAKERGAFDINDVIDTLVKKLIERHPHVFGCANPEDVLKNWEKKKMEKRKSIFEGIPKHLPALMRSQKLQDRTSQVGFDFQDISQVFEKIQEEINELKESLEKGDRENIKHEIGDILTAVVELARFVNVDAEEALQEANERFIRRFSYIEKKAKEEGRKLEDMSLEEMDKLWMEAKKLEEQGKLS” it was “soluble”; in that of “MKILVYGINYSPELTGIGKYTGEMVEWLAAQGHEVRVITAPPYYPQWQVGENYSAWRYKREEGAATVWRCPLYVPKQPSTLKRLLHLGSFAVSSFFPLMAQRRWKPDRIIGVVPTLFCAPGMRLLAKLSGARTVLHIQDYEVDAMLGLGLAGKGKGGKVAQLATAFERSGLHNVDNVSTISRSMMNKAIEKGVAAENVIFFPNWSEIARFQHVADADVDALRNQLDLPDNKKIILYSGNIGEKQGLENVIEAADRLRDEPLIFAIVGQGGGKARLEKMAQQRGLRNMQFFPLQSYDALPALLKMGDCHLVVQKRGAADAVLPSKLTNILAVGGNAVITAEAYTELGQLCETFPGIAVCVEPESVEALVAGIRQALLLPKHNTVAREYAERTLDKENVLRQFINDIRG”, “soluble”; in that of “MPIWNHNTAYRPWLVSKLKGSRSLLDVGSGDHSFADLAGRQVAHVDVVDPLINTTFEEFQPTQSYDAITFIASLHHMNAEEGLNKAVRILNPGGKLLIVGLAKNKTASDWIISGLQAFLSRPISLINREQQIYPFPTKEPSESLHEIRQLTKQLLPHRRIRRGIHFRYLLEWTKPLEHHHHHH”, “not soluble”. For “MGSDKIHHHHHHMTSAGTIEDAKGPAELRLALRQMLGEDIVLSETEEMLRFCRDWHGDVTTGTVAVIRPRSTQQVAAAVKACRELGLSIVPQGGNTGLVLGAIPDAPERQVVLSLSRMNRIRKIDPADFSAVVESGCILSELKDAIAKMGMFFPLALGAQGSCQIGGNVSTNAGGVNVLRYGMTRELVLGLEVVLPDGSILEGLSTLRKDNRGIDLKQLFIGAEGTLGIITAVSITLTPYPDHVATALLGLASLEDAIRLYRRARRDCCDLMSAFEFMPPLAFTLAQEAMPDLPIPISAEYPAYVLMEISGSGLVDVDDLMQRFLEGAMEEGLVLDGTIAASQTQARNLWLIREGMNEGQAKRGTHMRTDISVPLSQLASFVEEAEKAVSEALPGAVSVSYGHVGDGNVHLNVLPPAGSTPEERIQLIYKAKTVVNEVLDRYTGSISAEHGIGRLKRPDFDARLPATRRKLLTALKHAVDPEMIMNPGCQLRF”, the “soluble on expression in E. coli” value is “not soluble”. With “MGSDKIHHHHHHLSITKPHTTVLLTGATGNWGRATLRELSSRSDRVTVLVLSLPGEKDKAVLSEFSAMENLDVVWGDLTDYATVATCVARADVVLHVGAVVSPLADEQPELATRVNVGSMRNIIRAVKAQPDPSRIRVVGVGSVAQTGNRNPPLHWGRVGDPIRVSRFDAYGQSKVTAERELVEAGLPTWVWLRQTGIFHPGMLEIRDPIMTHSPFAGVMEWVSAQDSARLLANLCEPDVPGELWGGVYNIGGGEGWRLSNWQLQTAIGQAVGVKDIRKWYDRNWFALKNFHGQWYTDSDRLHALVPFRQDTFESALARALATAPSSVRNAGKVPAWIVKHLVMKPLSRKPRGTMAAIRSGTDQEVSAHFGSLPEWRSIGDWSTFEPPAPSRTPSYLDHGYDENKPASEWSAIDYLEAAAFRGGRLLTEDVNPGLPSAPLMWSCGAGHEFAASPRLVLQAGHWCPACTADPAGYDRQAEHNKFLAQVIDA” the entry was “not soluble”; with “MGSDKIHHHHHHAQLVERVCRTDYKISPERKGELLLELDNISFFKDNEFAGTVIKGYSLPGLWIQPKFVYYPLKNIKLEGGVHMLWFSGAYRYPSVSYQDIALWKGEQYQKGAHLLPFFRAQISMKSVDLILGNIYGGSNHGLIAPLYNPELNLTADPETGFQVLAGAPWIDLDAWIDWQSFIFRDDTHQEAFTVGLSTRFKLNAPSSTFHCYIPLQILAQHRGGEIDTIRESSVQTLMNGAVGAGVTWNIDRRILKRVNVELDAAGYYQQKGELWPYHKGIGVYSSAFVDLGNFRVKMGHWICNDFITMFGIPYFGTVSTKKEGITYDKPQTLFCSIEYSRMFGKHYALGLKADAYQFFPGTMRSANGELTSPGSTTSFSVGVYFRINPSFLLKKF”, “not soluble”. On to “MGSDKIHHHHHHMQYNFKVEAFEGPLDLLLHLIHRYEIDIYNIPVAEITEQYLSYVHTMKELQLDVASEYLVMAATLLQIKSKMLLPKHEEDVLDNGDDFIDDPRQELMERLIEYKKYKQVATELKEREQERAQLYTRPPIDFTSLQQEEETSLPLDVTLYDMLAAFQKLMRRKKAKKPVTTRITRQEIPIEQRMTDILKQLEIQGGRQSFYDLFVDDEREIMVVTFLAVLELMKNQQIVIEQEHNFDEIFVSSYTKSA”, for which the “soluble on expression in E. coli” value is on record as “not soluble”. With “MGSDKIHHHHHHMNQTTLNTIRNYVMQASAQWISDFNQGNVQTCINRYLPSATMQVHPFGKFTSIEAIADFWLEFAKSNPSDLVYRNIEIKVLNDRQAVLSANWRMNIASGFISKELWTLAEDGQWYLEEDDFTVLAQHTKPVDDKRTALVLVDLQNDYFSGGRFELDNTDSAAKQASQLLAHFRQKELPVIHMQHLFEETNAAFFSANTVGAEIESSVKPTANEPVIIKHQIDSFIETTLEQTLVELGIDNLVIVGAMAQACVQTLCRSAVNKGYKCQVISDAIAAPKLEYQQHSFTGGQLVAANLLSLSFGGADITDTKGWLQENK” the entry was “not soluble”. In the case of “MGHHHHHHSHMFPQAQESPAAVEVLTQVVHPSAAMASQERAQVAFKKMVQGVLQFAVCDTAAAGQLVKDGVTQVVVSEEGAVHMVAGEGAQIIMQEAQGEHMDLVESDGEISQIIVTEELVQAMVQESSGGFSEGTTHYILTELPPGVQGEPGLYSHTVLETADSQELLQAGATLGTEAGAPSRAEQLASVVIYTQEGSSAAAAIQSQRESSELQEA” it was “not soluble”; in that of “GPGGSPGGLQKRHARVTVKYDRRELQRRLDVEKWIDGRLEELYRGREADMPDEVNIDELLELESEEERSRKIQGLLKSCTNPTENFVQELLVKLRGLHK”, “soluble”; in that of “MGSDKIHHHHHHMPTILEHLAALFDKDMRAVLSNPRAISMIANPSARVQMAAVRRDRSVICFIEKPTEKVQLTAVRNAPHNIHFITSPSERVQLTVIGIRPSYVGFIPNPTEKVQLKAVEKRPECIFLLQKPAEKVQLTAVLKDPRYLSAIREPTEKVQLAAVQKNPECIRHIAEPTEKVQHMAVQRSPDIFRQIRQPEESVRLAAVQAKGENIRYVSAPSEAVQLAAVRNDPMNIRYIENPTEKVQSVVLNADRDAAPFISSPTEEIKRLAMEMYGLRLENAAGKEAAAARTSETSGNSGKKATEGVAKKPSAKQVKEAVEKLDSEIREINREYFQATYEAQYSDNAAERESEISAAGKNREKKLVKAYEKFNSAAVPERKECNVGKIVKELRKERVAVENMKAGEWHSLMKGKAVQPPLVSGASGAAGKGSALMLARTPAGYALKAAGTINQASRQANAEM”, “not soluble”. As for “MVSVARELTVGINGFGRIGRLVLRACMEKGVKVVAVNDPFIDPEYMVYMFKYDSTHGRYKGSVEFRNGQLVVDNHEISVYQCKEPKQIPWRAVGSPYVVESTGVYLSIQAASDHISAGAQRVVISAPSPDAPMFVMGVNENDYNPGSMNIVSNASCTTNCLAPLAKVIHERFGIVEGLMTTVHSYTATQKTVDGPSRKAWRDGRGAHQNIIPASTGAAKAVTKVIPELKGKLTGMAFRVPTPDVSVVDLTCRLAQPAPYSAIKEAVKAAAKGPMAGILAYTEDEVVSTDFLGDTHSSIFDAKAGIALNDNFVKLISWYDNEYGYSHRVVDLLRYMFSRDAENLYFQ”, the “soluble on expression in E. coli” value is listed as “soluble”. In the case of “MGSDKIHHHHHHMPLLLKGSCRCNAVRFEVESHTPVPFMLCYCSICRKQQGGGGFAINLGAAYETLNIRGKRSLGVYRAEIEDDEHPHCEVSTGERNFCRKCGSALWLYDPTWPELVHPFASAIDSDLPKPPSRVHLMLKYKANWVEPVIGKGDKTFDVYPEESIADWHKLTGMWVD” it was “not soluble”; in that of “MGSDKIHHHHHHMSESLPPDAQRSPSYRAGVGLKAEHYRTILESQPDIGFFEVHAENYMGAGGPPHRFLSAIRESYPLSLHGVGLSIGADRPLDRDHLQRLKELIARYSPALFSEHLAWSSHDCGFLNDLLPVPYTAESLTRIVDHIDQVQEVLGRQMLLENPSTYLAFEESTYPEIDFIAAVVRRTGCGLLLDVNNVYVASINQQWDPFAYIDEYPLAAVQEIHLAGHAEETDEKARPLLIDSHDRHVADVVWDLYARAIRGTGPIPTLIEWDANIPDWPTLKAEAGRADAVVQAATQPASVDHVTIRSQFDMTRRRLKEAQTL”, “not soluble”.
